According to PMC6675892, “Hepatitis B Virus X Protein Function Requires Zinc Binding” (Journal of Virology, 2019):

What was measured:
[1] = molecular target: His-HBx expressed alone (detergent solubilized) (hepatitis B virus (genotype D)) (UniProt P03165); test: AlphaScreen or HTRF; TR-FRET competition; 5 nM His-HBx and 5 nM GST-DDB1 expressed separately, preincubated with increasing untagged competitor 30 min at room temperature; Eu-cryptate anti-His and d2 anti-GST antibodies; 25 mM HEPES pH 7.2, 400 mM NaCl, 0.1 mg/ml BSA, 0.01% Brij-35, 0.5 mM TCEP
[2] = molecular target: His-HBx coexpressed with GST-DDB1 (hepatitis B virus (genotype D)) (UniProt P03165); test: AlphaScreen or HTRF; TR-FRET competition; 3 nM coexpressed His-HBx:GST-DDB1 complex preincubated with increasing untagged competitor 1 h at room temperature; Eu-cryptate anti-His and d2 anti-GST antibodies; 20 mM HEPES pH 7.2, 50 mM NaCl, 0.1 mg/ml BSA, 0.01% Brij-35, 0.5 mM TCEP
GST-DDB1 [3] = molecular target: GST-DDB1 (UniProt Q16531); test: as above
DDB1 = DDB1 (UniProt Q16531); test: AUC; sedimentation velocity at 20 C, absorbance at 280 nm, c(s) distribution (SEDFIT), each protein in its final storage buffer
GST-DDB1 [4] = molecular target: GST-DDB1 (UniProt Q16531); test: AlphaScreen or HTRF; TR-FRET competition; 5 nM His-HBx and 5 nM GST-DDB1 expressed separately, preincubated with increasing untagged competitor 30 min at room temperature; Eu-cryptate anti-His and d2 anti-GST antibodies; 25 mM HEPES pH 7.2, 400 mM NaCl, 0.1 mg/ml BSA, 0.01% Brij-35, 0.5 mM TCEP
GST-DDB1 [5] = molecular target: T1, GST-DDB1 (UniProt Q16531 1-1140); test: as above; conditions: both partners purified
T1 construct: also called glutathione S-transferase (GST)-DDB1; not shown: GST, N-terminal, kept

GST-DDB1 [6] = molecular target: T1, GST-DDB1; test: AlphaScreen or HTRF; TR-FRET competition; 3 nM coexpressed His-HBx:GST-DDB1 complex preincubated with increasing untagged competitor 1 h at room temperature; Eu-cryptate anti-His and d2 anti-GST antibodies; 20 mM HEPES pH 7.2, 50 mM NaCl, 0.1 mg/ml BSA, 0.01% Brij-35, 0.5 mM TCEP; conditions: both partners purified

Row | Molecule | IC50 (GST-DDB1 [3]) [nM] | IC50 (GST-DDB1 [5]) [nM] | IC50 (GST-DDB1 [6]) [nM] | other results
1 | DDB1 (from UniProt Q16531 1-1140) (natural protein) |  |  |  | IC50 [1]: 204 nM; IC50 [2]: 16 nM
2 | HBx H-box peptide (R96E mutant) (from UniProt P03165 88-102) (peptide; other documents disagree on this pair) | > 100000 |  |  | 
3 | HBx coexpressed with DDB1 (HBx:DDB1 coexpressed complex) (from UniProt P03165 1-154) (natural protein) |  |  |  | stoichiometry N (DDB1): 1
4 | recombinant untagged HBx (from UniProt P03165 1-154) (natural protein) | 9 |  |  | IC50 (GST-DDB1 [4]): 61 nM
5 | SV5-V (natural protein, also called V protein of paramyxovirus SV5; source: E. coli Rosetta, purified (glutathione agarose, thrombin cleavage, MonoQ, Superdex 75); not shown: GST, N-terminal, cleaved) MDPTDLSFSPDEINKLIETGLNTVEYFTSQQVTGTSSLGKNTIPPGVTGLLTNAAEAKIQESTNHQKGSVGGGAKPKKPRPKIAIVPADDKTVPGKPIPNPLLGLDSTPSTQTVLDLSGKTLPSGSYKGVKLAKFGKENLMTRFIEEPRENPIATSSPIDFKRGRDTGGFHRREYSIGWVGDEVKVTEWCNPSCSPITAAARRFECTCHQCPVTCSECERDT |  | 7 | 4 | 
6 | ILPKVLHKRTLGLSA [HBx H-box peptide (wild type)] |  | 5000 | 1560 | 
